{
  "source": "patent US7056679",
  "about": "(ANTYRA, dated 2006)",
  "binders": {"B1": {"name": "DGI-2-40F-3-C6 (peptide)", "peptide": "QMFSKGNWLAHPEGGVALGLSRESQLFRSCREFGYCMGPMAAAGAPVPYPDPLEPRP", "notes": "not shown: phage gene III coat protein (pCANTAB5E)"}, "B2": {"name": "DGI-2-40F-3-D12 (peptide)", "peptide": "QGSAHVVRPPGVYDVPWKVGMFFHPQNWPNSWGRAYFRSGAAAGAPVPYPDPLEPRP", "notes": "as for B1"}, "B3": {"name": "DGI-2-20R-4-F6 (peptide)", "peptide": "GNKCFPPHDLFWDPCDQLQSAAAGAPVPYPDPLEPRP", "notes": "as for B1"}, "B4": {"name": "DGI-2-40F-4-F12 (peptide)", "peptide": "GLYRRAGDASVGFSRWGRFDCQVYFSVECLLGSSWGGYSAAAGAPVPYPDPLEPRP", "notes": "as for B1"}, "B5": {"name": "DGL-2-20R-3-D6 (peptide)", "peptide": "ACSVGTALVFPQRWWYLGRSAAAGAPVPYPDPLEPRP", "notes": "as for B1"}, "B6": {"name": "DGI-2-20R-3-C10 (peptide)", "peptide": "SLSLYWDAQVGCEVFWGYCVAAAGAPVPYPDPLEPRP", "notes": "as for B1"}, "B7": {"name": "DGI-2-40F-3-C92 (peptide)", "peptide": "RFWSVSYQGGRVMCREWGYCLPIAAAGAPVPYPDPLEPRP", "notes": "as for B1"}, "B8": {"name": "DGI-2-20F-3-A7 (peptide)", "peptide": "LSLLSVVVRSMGASAPQRQVAAAGAPVPYPDPLEPRP", "notes": "as for B1"}, "B9": {"name": "DGI-2-40F-3-B11 (peptide)", "peptide": "LAPMFLQNQVRTWAASRRPLPAGPSNARCETGSLSPWVPCAAAGAPVPYPDPLEPRP", "notes": "as for B1"}, "B10": {"name": "DGI-2-20C-3-C65 (peptide)", "peptide": "TPDRCLIYSSIQCLLEYSARRGSADAAAGAPVPYPDPLEPRP", "notes": "as for B1"}, "B11": {"name": "DGI-2-40F-3-B122 (peptide)", "peptide": "HSGNRQSGSRRTHLLNIFCSSDTFVFPGWSAYLSRVCPGDAAAGAPVPYPDPLEPRP", "notes": "as for B1"}, "B12": {"name": "DGI-2-40F-3-B116 (peptide)", "peptide": "GVVRAQQGLRYELQGDRYRLRRTQWLTVTYCSPSWAFAGCAAAGAPVPYPDPLEPRP", "notes": "as for B1"}, "B13": {"name": "DGI-2-20R-3-C12 (peptide)", "peptide": "RWSLPAYLCRFVSQASCNSRAAAGAPVPYPDPLEPRP", "notes": "as for B1"}, "B14": {"name": "DGI-2-20F-3-B7 (peptide)", "peptide": "WAGSTDLWQLWSLWVKPELRAAAGAPVPYPDPLEPRP", "notes": "as for B1"}, "B15": {"name": "DGI-2-20R-4-G6 (peptide)", "peptide": "PAMGHCMQVLGPVLEGRSRDQVGRAAAGAPVPYPDPLEPRP", "notes": "as for B1"}, "B16": {"name": "DGI-2-20R-4-E4 (peptide)", "peptide": "LTWGPQFGSLQVYSRHRGLPAAAGAPVPYPDPLEPRP", "notes": "as for B1"}, "B17": {"name": "DGL-2-40F-3-D10 (peptide)", "peptide": "TLVTEGNKGSVKAHKDIGVWQLWWDWLSVTDSETVGRVSHAAAGAPVPYPDPLEPRP", "notes": "as for B1"}},
  "key": {"[1]": {"molecular_target": "T1, DGI-2 polypeptide (UniProt Q15004 1-111, limits assumed)", "T1 construct": "Vector-derived residues or tag of pIVEX2.3 are not described for this construct; also called KIAA0101", "T1 sequence (looked up)": "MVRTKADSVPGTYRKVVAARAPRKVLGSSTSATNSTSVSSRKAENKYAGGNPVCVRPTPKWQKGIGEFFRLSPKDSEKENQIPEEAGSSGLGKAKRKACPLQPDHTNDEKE", "test": "phage ELISA, 405 nm; DGI-2 coated", "method": "(§1) For analysis of individual target binders, colonies were picked and phage prepared as described above using helper phage, M13KO7. Ninety-six-well microtiter plates were coated with 500 ng/well of specific target protein, 500 ng/well lactate dehydrogenase (LDH) irrelevant or non-specific target, 500 ng/well of positive control antibody raised against ETAG, and negative control of non-fat milk powder-PBS 2% at 4° C. overnight. Plates were then blocked with 350 microliters/well PBS containing 2% non-fat milk for 1 hr at room temperature. One hundred microliters per well of phage from isolated clones were added and plates were incubated at room temperature for 2 hr after centrifuging samples for 20 minutes at 3500 rpm at 4° C. The phage solution was then removed, and the wells were washed three times with PBS at room temperature. Antibody raised against M13 conjugated to horseradish peroxidase (Pharmacia) was diluted 1:3000 in PBS-Tween and added to each well (100 µl/well). Incubation was for 1 hr at room temperature, followed by washing with PBS-(0.5%) Tween 3 times as described. Color was developed by addition of ABTS solution (100 µl/well; Boehringer, Indianapolis, Ind.). Plates were analyzed at 405 nm. A clone was considered \"positive\" if the $A405$ of the well was $\\geq$2-fold over background."}, "[2]": {"molecular_target": "T1, DGI-2 polypeptide", "test": "phage ELISA, 405 nm; DGI-2 signal over LDH signal", "method": "as §1"}, "[3]": {"molecular_target": "T2, antibody raised against ETAG", "T2 construct": "read-out of display; also called E-tag antibody; E tag antibody", "test": "phage ELISA, 405 nm; anti-E-tag antibody coated", "method": "as §1"}},
  "data": [
    {"binder": "B1", "values": [
      {"measurement": "DGI-2 (OD)", "setting": "[1]", "result": 2.3, "unit": "OD"},
      {"measurement": "DGI-2/LDH (OD)", "setting": "[2]", "result": 2.8, "unit": "ratio"},
      {"measurement": "ETAG (OD)", "setting": "[3]", "result": 10.1, "unit": "OD"}
    ]},
    {"binder": "B2", "values": [
      {"measurement": "DGI-2 (OD)", "setting": "[1]", "result": 2.3, "unit": "OD"},
      {"measurement": "DGI-2/LDH (OD)", "setting": "[2]", "result": 2.5, "unit": "ratio"},
      {"measurement": "ETAG (OD)", "setting": "[3]", "result": 7.3, "unit": "OD"}
    ]},
    {"binder": "B3", "values": [
      {"measurement": "DGI-2 (OD)", "setting": "[1]", "result": 2.3, "unit": "OD"},
      {"measurement": "DGI-2/LDH (OD)", "setting": "[2]", "result": 2.3, "unit": "ratio"},
      {"measurement": "ETAG (OD)", "setting": "[3]", "result": 13.2, "unit": "OD"}
    ]},
    {"binder": "B4", "values": [
      {"measurement": "DGI-2 (OD)", "setting": "[1]", "result": 2.2, "unit": "OD"},
      {"measurement": "DGI-2/LDH (OD)", "setting": "[2]", "result": 2.5, "unit": "ratio"},
      {"measurement": "ETAG (OD)", "setting": "[3]", "result": 8.7, "unit": "OD"}
    ]},
    {"binder": "B5", "values": [
      {"measurement": "DGI-2 (OD)", "setting": "[1]", "result": 2.2, "unit": "OD"},
      {"measurement": "DGI-2/LDH (OD)", "setting": "[2]", "result": 2.1, "unit": "ratio"},
      {"measurement": "ETAG (OD)", "setting": "[3]", "result": 12.9, "unit": "OD"}
    ]},
    {"binder": "B6", "values": [
      {"measurement": "DGI-2 (OD)", "setting": "[1]", "result": 2.2, "unit": "OD"},
      {"measurement": "DGI-2/LDH (OD)", "setting": "[2]", "result": 2.1, "unit": "ratio"},
      {"measurement": "ETAG (OD)", "setting": "[3]", "result": 14.7, "unit": "OD"}
    ]},
    {"binder": "B7", "values": [
      {"measurement": "DGI-2 (OD)", "setting": "[1]", "result": 2.1, "unit": "OD"},
      {"measurement": "DGI-2/LDH (OD)", "setting": "[2]", "result": 2.6, "unit": "ratio"},
      {"measurement": "ETAG (OD)", "setting": "[3]", "result": 9.8, "unit": "OD"}
    ]},
    {"binder": "B8", "values": [
      {"measurement": "DGI-2 (OD)", "setting": "[1]", "result": 2.1, "unit": "OD"},
      {"measurement": "DGI-2/LDH (OD)", "setting": "[2]", "result": 2.4, "unit": "ratio"},
      {"measurement": "ETAG (OD)", "setting": "[3]", "result": 7, "unit": "OD"}
    ]},
    {"binder": "B9", "values": [
      {"measurement": "DGI-2 (OD)", "setting": "[1]", "result": 1.8, "unit": "OD"},
      {"measurement": "DGI-2/LDH (OD)", "setting": "[2]", "result": 2, "unit": "ratio"},
      {"measurement": "ETAG (OD)", "setting": "[3]", "result": 7.9, "unit": "OD"}
    ]},
    {"binder": "B10", "values": [
      {"measurement": "DGI-2 (OD)", "setting": "[1]", "result": 1.8, "unit": "OD"},
      {"measurement": "DGI-2/LDH (OD)", "setting": "[2]", "result": 1.8, "unit": "ratio"},
      {"measurement": "ETAG (OD)", "setting": "[3]", "result": 7.4, "unit": "OD"}
    ]},
    {"binder": "B11", "values": [
      {"measurement": "DGI-2 (OD)", "setting": "[1]", "result": 1.7, "unit": "OD"},
      {"measurement": "DGI-2/LDH (OD)", "setting": "[2]", "result": 2.2, "unit": "ratio"},
      {"measurement": "ETAG (OD)", "setting": "[3]", "result": 11, "unit": "OD"}
    ]},
    {"binder": "B12", "values": [
      {"measurement": "DGI-2 (OD)", "setting": "[1]", "result": 1.7, "unit": "OD"},
      {"measurement": "DGI-2/LDH (OD)", "setting": "[2]", "result": 2, "unit": "ratio"},
      {"measurement": "ETAG (OD)", "setting": "[3]", "result": 6.5, "unit": "OD"}
    ]},
    {"binder": "B13", "values": [
      {"measurement": "DGI-2 (OD)", "setting": "[1]", "result": 1.6, "unit": "OD"},
      {"measurement": "DGI-2/LDH (OD)", "setting": "[2]", "result": 1.6, "unit": "ratio"},
      {"measurement": "ETAG (OD)", "setting": "[3]", "result": 14.6, "unit": "OD"}
    ]},
    {"binder": "B14", "values": [
      {"measurement": "DGI-2 (OD)", "setting": "[1]", "result": 1.6, "unit": "OD"},
      {"measurement": "DGI-2/LDH (OD)", "setting": "[2]", "result": 1.6, "unit": "ratio"},
      {"measurement": "ETAG (OD)", "setting": "[3]", "result": 16.4, "unit": "OD"}
    ]},
    {"binder": "B15", "values": [
      {"measurement": "DGI-2 (OD)", "setting": "[1]", "result": 1.6, "unit": "OD"},
      {"measurement": "DGI-2/LDH (OD)", "setting": "[2]", "result": 1.4, "unit": "ratio"},
      {"measurement": "ETAG (OD)", "setting": "[3]", "result": 11.5, "unit": "OD"}
    ]},
    {"binder": "B16", "values": [
      {"measurement": "DGI-2 (OD)", "setting": "[1]", "result": 1.6, "unit": "OD"},
      {"measurement": "DGI-2/LDH (OD)", "setting": "[2]", "result": 1.3, "unit": "ratio"},
      {"measurement": "ETAG (OD)", "setting": "[3]", "result": 18.1, "unit": "OD"}
    ]},
    {"binder": "B17", "values": [
      {"measurement": "DGI-2 (OD)", "setting": "[1]", "result": 1.5, "unit": "OD"},
      {"measurement": "DGI-2/LDH (OD)", "setting": "[2]", "result": 1.7, "unit": "ratio"},
      {"measurement": "ETAG (OD)", "setting": "[3]", "result": 10.3, "unit": "OD"}
    ]}
  ]
}
